Assay results as given in patent US20040018971A1 (published 2004).
Each block holds one binder with its values, some of them ahead of it.

Experiments:
HLA-A*1101 [1] = target: HLA-A*1101 (human); assay: competition with 125I-labelled probe peptide for purified HLA-A*1101, gel filtration; ratio to standard peptide 940.06 [..] (6.0 nM)
HLA-A*0101 = target: T1, HLA-A*0101 (human); assay: inhibition of 125I-labeled probe peptide binding to purified HLA-A*0101, gel filtration
T1 construct: also called HLA-A1

HLA-A*1101 [2] = target: T2, HLA-A*1101 (human); assay: competition with 125I-labelled standard peptide for purified HLA, gel filtration
T2 construct: The construct is not described

HLA-A*0301 [3] = target: T3, HLA-A*0301 (human); assay: as above
T3 construct: also called A3

HLA-A*0301 [4] = target: T4, HLA-A*0301 (human); assay: inhibition of 125I-labelled standard peptide 941.12 binding to purified HLA-A*0301, gel filtration
T4 construct: also called HLA-A3

HLA-A*0301 [5] = target: T5, HLA-A*0301 (human); assay: competition with 125I-labelled probe peptide for purified HLA-A*0301, gel filtration; ratio to standard peptide 941.12
T5 construct: also called HLA-A3

HLA-A*2402 = HLA-A*2402 (human); assay: inhibition of 125I-labeled probe peptide binding to purified HLA-A*2402, gel filtration

- relative binding ratio (IC50 of standard peptide / IC50 of test peptide) (HLA-A*1101 [1]): -0.0002 ratio
Binder: WMALESILR (also called Her2/neu.888) [HER2/neu peptide, position 888, 9 amino acids]

- IC50 (HLA-A*0101): 50 nM
Binder: GTDMKLRLPY (HER2/neu analog peptide) [Her2/neu.28.Y10]

- IC50 (HLA-A*0101): 250 nM
Binder: EADQCVACAHY (HER2/neu peptide) [Her2/neu.580]

- IC50 (HLA-A*0101): 1.9 nM
Binder: HTDMLRHLY (HER2/neu analog peptide) [Her2/neu.42.T2]

- relative binding ratio (IC50 of standard peptide / IC50 of test peptide) (HLA-A*0301 [4]): 0.0002 ratio
Binder: PLTCSPQPEY [HER2/neu peptide, position 1130, 10 amino acids]

- relative binding ratio (IC50 of standard peptide / IC50 of test peptide) (HLA-A*0301 [4]): 0.0007 ratio
Binder: QVCTGTDMK [HER2/neu peptide, position 24, 9 amino acids]

- relative binding ratio (IC50 of standard peptide / IC50 of test peptide) (HLA-A*1101 [1]): 0.0005 ratio
Binder: VTGASPGGLR (also called Her2/neu.129) [HER2/neu peptide, position 129, 10 amino acids]

- relative binding ratio (IC50 of standard peptide / IC50 of test peptide) (HLA-A*0301 [5]): 0.0003 ratio
Binder: ETEYHADGGK (Synthetic peptide) [HER2/neu peptide, position 874, 10 amino acids (ETEYHADGGK)]

- relative binding ratio (IC50 of standard peptide / IC50 of test peptide) (HLA-A*1101 [1]): 0.0013 ratio
Binder: YVLIAHNQVR (also called Her2/neu.83) [HER2/neu peptide, position 83, 10 amino acids]

- IC50 (HLA-A*2402): 38 nM
Binder: SYMPIWKF (HER2/neu peptide) [Her2/neu.609]

- relative binding ratio (HLA-A*1101 [2]): 0.0001 ratio (IC50 of standard peptide / IC50 of test peptide)
- relative binding ratio (HLA-A*0301 [3]): 0.0002 ratio (IC50 of standard peptide / IC50 of test peptide)
B3: HER2/neu peptide, position 739, 9 amino acids (peptide)
peptide: WIPDGENVK
notes: Synthetic peptide; also called Her2/neu.739 (9-mer)

- relative binding ratio (IC50 of standard peptide / IC50 of test peptide) (HLA-A*0301 [5]): 0.0003 ratio
Binder: DVRPQPPSPR (Synthetic peptide) [HER2/neu peptide, position 1144, 10 amino acids (DVRPQPPSPR)]

- relative binding ratio (HLA-A*1101 [2]): 0.0002 ratio (IC50 of standard peptide / IC50 of test peptide)
- relative binding ratio (HLA-A*0301 [3]): -0.0002 ratio (IC50 of standard peptide / IC50 of test peptide)
B4: HER2/neu peptide, position 959, 10 amino acids (peptide)
peptide: WMIDSECRPR
notes: Synthetic peptide; also called Her2/neu.959 (10-mer)

Further lines, the binder ahead of its results:

B1: HER2/neu peptide, position 973, 9 amino acids (peptide)
peptide: VSEFSRMAR
notes: Synthetic peptide; also called Her2/neu.973 (9-mer)
- relative binding ratio (HLA-A*1101 [2]): 0.0021 ratio (IC50 of standard peptide / IC50 of test peptide)
- relative binding ratio (HLA-A*0301 [3]): -0.0002 ratio (IC50 of standard peptide / IC50 of test peptide)

Binder: PSGVKPDLSY [HER2/neu peptide, position 601, 10 amino acids]
- relative binding ratio (IC50 of standard peptide / IC50 of test peptide) (HLA-A*0301 [4]): 0.0003 ratio

Binder: ETLEEITGY (Synthetic peptide) [HER2/neu peptide, position 401, 9 amino acids (ETLEEITGY)]
- relative binding ratio (IC50 of standard peptide / IC50 of test peptide) (HLA-A*0301 [5]): 0.0002 ratio

Binder: VSEFSRMAR (also called Her2/neu.973)
- relative binding ratio (IC50 of standard peptide / IC50 of test peptide) (HLA-A*1101 [1]): 0.0021 ratio

Binder: EVTAEDGTQR (Synthetic peptide) [HER2/neu peptide, position 321, 10 amino acids (EVTAEDGTQR)]
- relative binding ratio (IC50 of standard peptide / IC50 of test peptide) (HLA-A*0301 [5]): 0.0002 ratio

Binder: QLVTQLMPY [HER2/neu peptide, position 795, 9 amino acids]
- relative binding ratio (IC50 of standard peptide / IC50 of test peptide) (HLA-A*0301 [4]): 0.011 ratio

B2: HER2/neu peptide, position 888, 10 amino acids (peptide)
peptide: WMALESILRR
notes: Synthetic peptide; also called Her2/neu.888 (10-mer)
- relative binding ratio (HLA-A*1101 [2]): 0.0016 ratio (IC50 of standard peptide / IC50 of test peptide)
- relative binding ratio (HLA-A*0301 [3]): 0.0085 ratio (IC50 of standard peptide / IC50 of test peptide)

Binder: ASCVTACPY (HER2/neu peptide, 9-mer) [Her2/neu.293]
- IC50 (HLA-A*0101): 455 nM

Binder: ATCVTACPY (HER2/neu analog peptide) [Her2/neu.293.T2]
- IC50 (HLA-A*0101): 49 nM

Binder: DLSYMPIWK (Synthetic peptide) [HER2/neu peptide, position 607, 9 amino acids (DLSYMPIWK)]
- relative binding ratio (IC50 of standard peptide / IC50 of test peptide) (HLA-A*0301 [5]): 0.0005 ratio

Binder: ELHCPALVTY (Synthetic peptide) [HER2/neu peptide, position 265, 10 amino acids (ELHCPALVTY)]
- relative binding ratio (IC50 of standard peptide / IC50 of test peptide) (HLA-A*0301 [5]): 0.0002 ratio

Binder: ELMTFGAKPY (Synthetic peptide) [HER2/neu peptide, position 914, 10 amino acids (ELMTFGAKPY)]
- relative binding ratio (IC50 of standard peptide / IC50 of test peptide) (HLA-A*0301 [5]): 0.0002 ratio

Binder: VTAEDGTQR (also called Her2/neu.322) [HER2/neu peptide, position 322, 9 amino acids]
- relative binding ratio (IC50 of standard peptide / IC50 of test peptide) (HLA-A*1101 [1]): 0.014 ratio

Binder: PTDCCHEQCAA (HER2/neu peptide, 11-mer) [Her2/neu.232]
- IC50 (HLA-A*0101): 58 nM

Binder: QALLHTANR [HER2/neu peptide, position 491, 9 amino acids]
- relative binding ratio (IC50 of standard peptide / IC50 of test peptide) (HLA-A*0301 [4]): 0.0046 ratio

Binder: AYSLTLQGL (HER2/neu peptide) [Her2/neu.440]
- IC50 (HLA-A*2402): 92 nM

Binder: AYSLTLQGF (HER2/neu analog peptide) [Her2/neu.440.F9]
- IC50 (HLA-A*2402): 52 nM

Binder: VVQGNLELTY (also called Her2/neu.55) [HER2/neu peptide, position 55, 10 amino acids]
- relative binding ratio (IC50 of standard peptide / IC50 of test peptide) (HLA-A*1101 [1]): 0.011 ratio
